Data as given in PMC7515732 (Nucleic Acids Research, 2020).
Blank lines part the entries; values can stand above or below the binder they belong to.

Columns and labels:
[1] = biological target: T1, HsRARA DBD (82–167) (human, UniProt P10276 82-167); experiment: crystal structure
T1 sequence (looked up): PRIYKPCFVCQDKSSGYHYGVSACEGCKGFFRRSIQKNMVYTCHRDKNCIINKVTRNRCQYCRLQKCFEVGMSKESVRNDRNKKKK

[2] = biological target: T2, RXRA ΔAB;RARA ΔAB (Mus musculus;Mus musculus, UniProt P28700;P11416 135-467;84-462, |); experiment: FRET titration
T2 sequence 1: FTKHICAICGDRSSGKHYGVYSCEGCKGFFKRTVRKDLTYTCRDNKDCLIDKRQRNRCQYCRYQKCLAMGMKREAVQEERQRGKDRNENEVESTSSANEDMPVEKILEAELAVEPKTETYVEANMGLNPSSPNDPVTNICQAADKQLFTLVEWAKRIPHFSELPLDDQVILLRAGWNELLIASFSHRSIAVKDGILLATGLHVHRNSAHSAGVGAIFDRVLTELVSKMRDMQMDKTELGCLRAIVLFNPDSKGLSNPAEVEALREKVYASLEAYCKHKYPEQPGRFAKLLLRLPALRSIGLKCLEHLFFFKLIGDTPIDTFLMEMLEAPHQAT
T2 sequence 2: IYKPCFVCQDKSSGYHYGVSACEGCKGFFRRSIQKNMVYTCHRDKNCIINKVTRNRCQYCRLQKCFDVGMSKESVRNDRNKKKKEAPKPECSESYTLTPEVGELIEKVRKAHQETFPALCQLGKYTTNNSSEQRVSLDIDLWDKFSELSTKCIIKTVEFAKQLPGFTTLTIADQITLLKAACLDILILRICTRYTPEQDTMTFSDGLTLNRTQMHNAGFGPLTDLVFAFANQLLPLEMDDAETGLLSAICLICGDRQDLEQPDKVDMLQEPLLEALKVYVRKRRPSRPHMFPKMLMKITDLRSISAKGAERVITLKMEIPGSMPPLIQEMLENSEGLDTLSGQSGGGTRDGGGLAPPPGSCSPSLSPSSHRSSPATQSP

[3] = biological target: T3, RXRA ΔAB;RARA ΔABF (Mus musculus;Mus musculus, UniProt P28700;P11416 135-467;84-421, |); experiment: SEC-SAXS/RALLS
T3 sequence 1: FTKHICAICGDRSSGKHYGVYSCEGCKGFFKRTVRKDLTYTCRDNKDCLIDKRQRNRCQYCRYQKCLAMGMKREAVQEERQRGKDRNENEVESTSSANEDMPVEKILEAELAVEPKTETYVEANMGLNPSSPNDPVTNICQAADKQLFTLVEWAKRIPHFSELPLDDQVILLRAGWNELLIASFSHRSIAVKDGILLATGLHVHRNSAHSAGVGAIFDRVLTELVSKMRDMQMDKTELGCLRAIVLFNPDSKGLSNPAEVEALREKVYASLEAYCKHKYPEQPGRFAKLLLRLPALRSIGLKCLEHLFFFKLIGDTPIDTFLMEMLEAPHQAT
T3 sequence 2: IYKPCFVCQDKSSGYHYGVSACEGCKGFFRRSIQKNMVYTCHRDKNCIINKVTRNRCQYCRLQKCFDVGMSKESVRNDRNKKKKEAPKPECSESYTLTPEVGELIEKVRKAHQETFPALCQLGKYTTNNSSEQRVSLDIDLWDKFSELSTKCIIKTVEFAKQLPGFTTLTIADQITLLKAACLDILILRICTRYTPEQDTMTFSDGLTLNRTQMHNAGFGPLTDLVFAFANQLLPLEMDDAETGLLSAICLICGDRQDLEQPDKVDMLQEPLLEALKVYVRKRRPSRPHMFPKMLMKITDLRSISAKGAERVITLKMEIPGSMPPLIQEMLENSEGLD

[4] = biological target: T2, RXRA ΔAB;RARA ΔAB; experiment: HDX-MS
[5] = biological target: RXRA DBD;RARA DBD (Homo sapiens;Homo sapiens, UniProt P19793;P10276 130-212;82-167, |); experiment: X-ray crystallography
[6] = biological target: RXRA DBD (Homo sapiens, UniProt P19793 130-212); experiment: X-ray crystallography

binding result [1]: binds
B1: HsRXRA DBD (130–212) (domain or fragment, human, UniProt P19793 130-212, looked up)
chain: FTKHICAICGDRSSGKHYGVYSCEGCKGFFKRTVRKDLTYTCRDNKDCLIDKRQRNRCQYCRYQKCLAMGMKREAVQEERQRG

B2: Socs3 DR0 (dsDNA)
DNA 1: AGGGGTCAAGGTCAAA
DNA 2: TTTGACCTTGACCCCT
Kd [2]: 2700 nM

B3: Ramp2 DR1 (dsDNA)
DNA 1: TGAGTTCAAGGGTCAAT
DNA 2: ATTGACCCTTGAACTCA
Kd [2]: 500 nM

B4: Hoxb13 DR0 unlabelled (SAXS, HDX) (dsDNA)
DNA 1: GAAGGTCAAGGCCAAG
DNA 2: CTTGGCCTTGACCTTC
binding result [3]: binds | binding result [4]: binds

B5: F11r DR5 (dsDNA)
DNA 1: AGGGGTCAAGCCAGGTTCACT
DNA 2: AGTGAACCTGGCTTGACCCCT
binding result [3]: binds

B6: Rarb2 DR5 (crystal) (dsDNA)
DNA 1: AGGGTTCACCGAAAGTTCACT
DNA 2: AGTGAACTTTCGGTGAACCCT
binding result [5]: binds

B7: Hoxb13 DR0 (crystal) (dsDNA)
DNA 1: GAAGGTCAAGGCCAAG
DNA 2: CTTGGCCTTGACCTTC
binding result [6]: binds

B8: Rarb2 DR5 TAMRA (dsDNA)
DNA 1: AGGGTTCACCGAAAGTTCACT
DNA 2: AGTGAACTTTCGGTGAACCCT
Kd [2]: 800 nM
